Results from patent publication US7273727B2, “Fusion proteins for prodrug activation” (Behrinwerke Aktiengesellschaft, priority 1992, dated 2007).

Columns and labels:
[1] = test system: PEM (polymorphic epithelial mucin); assay: Specificity enzyme activity test, control plates coated with PEM; format: biochemical
Description: (§1) The ability of the sFv-huβ-Gluc fusion protein to bind specifically to the CEA epitope defined by 431/26 and simultaneously to exert the enzymatic activity of human β-glucuronidase was shown in a specificity enzyme activity test (EP-A2-0 501 215). The test determines the liberation of 4-methylumbelliferone from 4-methylumbelliferyl β-glucuronide by the β-glucuronidase portion of the fusion protein after the fusion protein has been bound via the sFv portion to an antigen. The measured fluorescence values are reported as relative fluorescence units (FU).

[2] = test system: CEA; assay: Specificity enzyme activity test, plates coated with CEA; format: biochemical
Description: as §1

[3] = Analysis of the monosaccharide components in the carbohydrate content (HPAE-PAD after hydrolysis); format: physicochemical
Description: Neuraminic acid was determined by the method of Hermentin and Seidat (1991) GBF Monographs Volume 15, pp. 185-188 (after hydrolysis for 30 min in the presence of 0.1 N sulfuric acid at 80° C. and subsequent neutralization with 0.4 N sodium hydroxide solution) by high-pH anion exchange chomatography with pulsed amerometric detection (HPAE-PAD).
The monosaccaride components were determined (after hydrolysis for 4 h in the presence of 2 N trifluoracetic acid at 100° C. and evaporation to dryness in a SpeedVac) likewise by HPAE-PAD in a […] of the method described by Hardy et al. (1988) Analytical Biochemistry 170, pp. 54-62.

[4] = Injection of prodrug after injection of fusion protein, side effects; format: in vivo; details: prodrug injected 3 days after injection of the fusion protein; data not shown
Description: This rapid internalization mechanism, which is mainly mediated by galactose and mannose, is closely involved in the advantageous phannacokinetics of the fusion protein according to the invention. These advantageous pharmacokinetics of the fusion protein to which galactose and, in particular, mannose are attached makes it possible for a hydrophilic prodrug which undergoes extracellular distribution to be administered i.v. at a relatively early time without eliciting non-specific prodrug activation. In this case an elimination step as described by Sharma et al. (Brit. J. Cancer, 61, 659, 1990) is unnecessary.

[5] = fusion protein expressed by BHK cells
[6] = fusion protein from BHK cells, after hydrolysis
[7] = fusion protein from Saccharomyces cerevisiae

B1: sFv-huβ-Gluc: humanized sFv fragment against CEA (from MAb BW 431/26) linked via hinge to human β-glucuronidase; SEQ ID NO:2 (protein)
chain: MGWSCIILFLVATATGVHSQVQLQESGPGLVRPSQTLSLTCTVSGFTISSGYSWHWVRQPPGRGLEWIGYIQYSGITNYNPSLKSRVTMLVDTSKNQFSLRLSSVTAADTAVYYCAREDYDYHWYFDVWGQGTTVTVSSGGGGSGGGGSGGGGSDIQLTQSPSSLSASVGDRVTITCSTSSSVSYMHWYQQKPGKAPKLLIYSTSNLASGVPSRFSGSGSGTDFTFTISSLQPEDIATYYCHQWSSYPTFGQGTKLEIKELKTPLGDTTHTCPRCPAAAAVQGGMLYPQESPSRECKELDGLWSFRADFSDNRRRGFEEQWYRRPLWESGPTVDMPVPSSFNDISQDWRLRHFVGWVWYEREVILPERWTQDLRTRVVLRIGSAHSYAIVWVNGVDTLEHEGGYLPFEADISNLVQVGPLPSRLRITIAINNTLTPTTLPPGTIQYLTDTSKYPKGYFVQNTYFDFFNYAGLQRSVLLYTTPTTYIDDITVTTSVEQDSGLVNYQISVKGSNLFKLEVRLLDAENKVVANGTGTQGQLKVPGVSLWWPYLMHERPAYLYSLEVQLTAQTSLGPVSDFYTLPVGIRTVAVTKSQFLINGKPFYFHGVNKHEDADIRGKGFDWPLLVKDFNLLRWLGANAFRTSHYPYAEEVMQMCDRYGIVVIDECPGVGLALPQFFNNVSLHHHMQVMEEVVRRDKNHPAVVMWSVANEPASHLESAGYYLKMVIAHTKSLDPSRPVTFVSNSNYAADKGAPYVDVICLNSYYSWYHDYGHLELIQLQLATQFENWYKKYQKPIIQSEYGAETIAGFHQDPPLMFTEEYQKSLLEQYHLGLDQKRRKYVVGELIWNFADFMTEQSPTRVLGNKKGIFTRQRQPKSAAFLLRERYWKIANETRYPHSVAKSQCLENSPFT
With B1 the “liberation of methylumbelliferone from 4-methylumbelliferyl β-glucuronide” value [1] was “does not liberate any methylumbelliferone”, the antigen specificity [2, 5] was “specific for CEA” and the β-glucuronidase activity [2, 5] was “full β-glucuronidase activity”. For the same molecule, the “liberation of methylumbelliferone from 4-methylumbelliferyl β-glucuronide” value ([2]; plates coated with CEA) was “significant liberation of methyl-umbelliferone”, the “Fucose, molar ratio” value [3, 6] was 4 mol of carbohydrate/mol of sFv-huβ-Gluc and the “Galactosamine, molar ratio” value [3, 6] was 2 mol of carbohydrate/mol of sFv-huβ-Gluc. The “Galactose, molar ratio” value [3, 6] was 8 mol of carbohydrate/mol of sFv-huβ-Gluc, the “Glucose, molar ratio” value [3, 6] was 1 mol of carbohydrate/mol of sFv-huβ-Gluc and the “Mannose, molar ratio” value [3, 6] was 43 mol of carbohydrate/mol of sFv-huβ-Gluc. For the same molecule, the “N-Acetyl glucosamine, molar ratio” value [3, 6] was 30 mol of carbohydrate/mol of sFv-huβ-Gluc, the “N-Acetyl-neuraminic acid, molar ratio” value [3, 6] was 4 mol of carbohydrate/mol of sFv-huβ-Gluc and the “side effects after injection of a suitable prodrug” value [4] was “without producing significant side effects”.

B2: sFv-huβGluc: sFv 431/26 human β-glucuronidase fusion protein expressed in yeast (Example 9), highly mannosylated (protein)
chain: QVQLQESGPGLVRPSQTLSLTCTVSGFTISSGYSWHWVRQPPGRGLEWIGYIQYSGITNYNPSLKSRVTMLVDTSKNQFSLRLSSVTAADTAVYYCAREDYDYHWYFDVWGQGTTVTVSSGGGGSGGGGSGGGGSDIQLTQSPSSLSASVGDRVTITCSTSSSVSYMHWYQQKPGKAPKLLIYSTSNLASGVPSRFSGSGSGTDFTFTISSLQPEDIATYYCHQWSSYPTFGQGTKLEIKELKTPLGDTTHTCPRCPAAAAVQGGMLYPQESPSRECKELDGLWSFRADFSDNRRRGFEEQWYRRPLWESGPTVDMPVPSSFNDISQDWRLRHFVGWVWYEREVILPERWTQDLRTRVVLRIGSAHSYAIVWVNGVDTLEHEGGYLPFEADISNLVQVGPLPSRLRITIAINNTLTPTTLPPGTIQYLTDTSKYPKGYFVQNTYFDFFNYAGLQRSVLLYTTPTTYIDDITVTTSVEQDSGLVNYQISVKGSNLFKLEVRLLDAENKVVANGTGTQGQLKVPGVSLWWPYLMHERPAYLYSLEVQLTAQTSLGPVSDFYTLPVGIRTVAVTKSQFLINGKPFYFHGVNKHEDADIRGKGFDWPLLVKDFNLLRWLGANAFRTSHYPYAEEVMQMCDRYGIVVIDECPGVGLALPQFFNNVSLHHHMQVMEEVVRRDKNHPAVVMWSVANEPASHLESAGYYLKMVIAHTKSLDPSRPVTFVSNSNYAADKGAPYVDVICLNSYYSWYHDYGHLELIQLQLATQFENWYKKYQKPIIQSEYGAETIAGFHQDPPLMFTEEYQKSLLEQYHLGLDQKRRKYVVGELIWNFADFMTEQSPTRVLGNKKGIFTRQRQPKSAAFLLRERYWKIANETRYPHSVAKSQCLENSPFT
Molecule B2 has a Glucosamine [3, 7] of 6 mol/mol, a Glucose [3, 7] of 12 mol/mol and a Mannose [3, 7] of 150 mol/mol.
